Data: the DeepSol protein solubility set

Experiment: soluble on expression in E. coli; label from the status in PepcDB or PDB records

| Sequence | soluble on expression in E. coli |
| --- | --- |
| MRSKYIVIEGLEGAGKTTARNVVVETLEQLGIRDMVFTREPGGTQLAEKLRSLLLDIKSVGDEVITDKAEVLMFYAARVQLVETVIKPALANGTWVIGDRHDLSTQAYQGGGRGIDQHMLATLRDAVLGDFRPDLTLYLDVTPEVGLKRARARGELDRIEQESFDFFNRTRARYLELAAQDKSIHTIDATQPLEAVMDAIRTTVTHWVKELDA | soluble |
| MGSDKIHHHHHHMKSPTPALMLQGTSSNAGKSILTAAFCRILLQDGYRVAPFKAQNMALNSHVTADGLELGRAQAVQAAACRLDVDVRMNPVLLKPNSDTGSQVVVMGRPVGNMRVREYMAYKPVAFDAARAAYDSLAADVDVMVLEGAGSPAEVNLKAHDIVNMAMARHAEAKVLLVGDIDRGGVFASLVGTMELLDPWERDLVAGFVLNKFRGDATLLSPAYDVVTGRTGKPFLGVVPWLHDLGLPDEDSVSFRETLAGRAPDVPAGGGMLDIVLVDLPHISNFTDLDALRREPDVAVRVVRSPEQLGSPDAIILPGSKNTLGDLAALRSRGMAEALCALRSAEGGHLGPVIVGICGGFQMMGRFLADPQGVESDHACTEAGLGLLPVTTEMGSAKVLRRTSAKTVSGWCGAGVAAGLMPGTGGGHGGAEVCPGEGYAVHGYEIHHGVTTPDAGGGAVLVCLHESDGSPAGWTTPDGQVWGTYLHGVFDADGFRRGWLDALRVRRGLEPVGRVVARYDLDPALDRLADVVREAVDMGHIYSVLGLSPKGRRQT | not soluble |
| MGSDKIHHHHHHMVLLDYHMHSLNSTDAHDEISALCAKAIARGLQEIAVTDHFEPSAGHEEYSEYDGRKYFTEIAEARRRFAGKLSIKSGVELGQPHLFPKYSLQLLEEYPYDYVLGSAHRMPNNVDFGEVRYTPENLAAYCASYLTELKALAQWGHYDCLGHLDLVKRYAAKYRLRANLMDYQEQLAEILRIVIDKGKGIEVNTSGLRQSSQECLPDLDIIRLYKELGGEIITVGSDAHWAEDVGKGIQEGLERLKKAGFKYVSVYTNRQPAMIKIGDKSALFTRGGLSA | not soluble |
| SILELAEYTYFPPTLMASLILKNCDFSRKSINWLFKHLDCIENRRLRKEVRKALNADYFFSPRAHEMQCRKGEMGEEIVRKWLDDREIAYCTEAEIRAKGDGKTPDFVLSNPIFIEDHMVSWIESKALFGDDFEHKHYAKKQFREYADIFGEGMVVYWYGFLEDLSSEDEGYLIKDYRFFEGYQEQTDEL | soluble |
| MDYQTFEKVNKFINVKAYIFFLTQELKQQYKLSLKELLILAYFYYKNEHSISLKEIIGDILYKQSDVVKNIKSLSKKGFINKSRNEADERRIFVSVTPIQRKKIACVINELDKIIKGFNKERDYIKYQWAPKYSKEFFILFMNIMYSKDFLKYRFNLTFLDLSILYVISSRKNEILNLKDLFESIRFMYPQIVRSVNRLNNKGMLIKERSLADERIVLIKINKIQYNTIKSIFTDTSKILKPRKFFF | not soluble |
| EFVDPSWNYFDNRVHDIAIMEGQSQTKKWQKWLSQIEKRFGVDRNILLAIWSMESNYGKVLANKDVMRDTIRSLATLAYADQKRAKYAQAQLIAAMTILQNGEITRAQLTGSWAGAMGHTQFIPSSYLAYAIDMDGDGRRDIWTSVPDALATAANLLYMNGWQSKLPWGVEVKLPQGKNLPEDWHSFEQWAKLGVKQANGKHLPSLSERAILKYPDGPEGPIFLVTKNFFVLKRYNNADRYAFAVALLANRIAGHSGL | not soluble |
| MAHHHHHHMSGRLRLYKEKLEGYNRFYSIVKTIKMVTMAKFRQAQVRIKTRDYTLRYTEKAFSKPGQLVGDSPQAKAIYIPVMTNRGSCGALNSNVVKVIDSVASSRAYLMPLGKRGIESLSKLYPSSFRMGIVNDMHEPMHFAYATYVWENAQQLCPEADRVHVIFHRCVSAGSQKQCYYNIPSYEKWREDLADASSTENQKSRYLFANTLLNEDEQMIRDFYDFHATLAILNAVCENELSEQAARLVAVEGQLSNISTLQQKTSSLYNKTRQSSITSSLIEIISAMTSLEGNAAKGVQRTNFWEGARMK | not soluble |
| MSLTLAFAYVRASTIEEVRQGSNERQKEAIRQYTYQKGYELEIFEDKAKSGRNTLRPEFERMLKSLDRRPQIVIVSKIDRFARSLSDLLKTLEYLDQNGVGFVSVNDPGIDTTTPNGRLLLQILGAFAEFERNMINSRTKAGREQAQSKGVKFGRPPLKTRNGSFIDRRKVMELKQKGLSARAIAKSLECSTTPILRILRENEGHHHHHH | soluble |
| MGSDKIHHHHHHMVDFKEQQQRYWQLLHQPESLFLLHRANDVEHFIALMTDFLAWPELSLEHMLAFIALQQDSFIPDLDRFSQAWFPCRYHSQHKTVSWVPALHKLSKPFLEDDISDARRCLLASFIQPSTLLEPLLSQRESLPIVNPSLMIFHWSRCGSTLVSSSFALLETCRVLSESMLCSDVMHDDHWPLALKPQLVDLCLRLQGRLRLGERKLVIKWNAWDLACWPMLLELYPKSRVLCLIRNPKDIIDSHQRVAGRHMAGGQSLLPTELQTQQMENTDTEPSLDEFRTTVLQYLAQLSLALHQSSRVILLDYHQLTDFKPTTFSTILGWALSEGEIERWQHHWRFDAKQQGQLFTPVVPNEPVPIRECQNPSWQQLLITYNQLLQRLYWDKKA | not soluble |
| LLDVMMDIFRRRELDLPCDGGAPQAPRPLKDHPRTPTDRGDADPRDAASHGLGTDRFPDLPTPEQDPRHPYRPGSQTLRPLRPLRPLRPLRPHGR | not soluble |
| MLRSQAKNVDLTSQADSRHQQKRKQAEQLDALKNPSEPAAKKQHSKGLTELRAHISGFKIDSAKRDPLGKSRTSRRDVENLPPQKSRYVDPCPHYDYDLEEAGNPDSISDYAQGIFDYYRHREVHFRVRKYLHKHPEVDVKTRAILIDWMVEIQETFELNHETLYNAVKLTDMYLCKTKNVDKNTIQKLACVAIFIAAKYDERSPPLVDDLIYLSGDRFSRDELLAMERELFATVGYDLGSPLSYRYLRRFGRVCRVDMKTLTMGRFILETSLMVYEYAMVSQSRLAAAAFVLAMRMLDKNNEYEWNPVLEKYSGFTGEEVMPLVEHMNHILHFSKDKWAQLTSVRQKYSHEVFFHVASIPMLPDTLKVVDSHTYAPVPMLSYP | not soluble |
| MGSDKIHHHHHHKPGEVWPDDKGVHINAHGGGILRVGDTYYWFGEHKTEGSAGNLAQVGVHCYSSKDLYNWKDEGIALSVVPDDTTSHIVKGCVLERPKVIYNKKNDQYVMWFHLEPRGAGYSGALSGVAVSKNVAGPYSFVNAFRPNAGFWPVNVQELHKQPCTFSADLRFSGGELPAHPDSLNLLGRDQISGQMARDMNLFVDDDGIAYHIYSSEENSTLHISQLTDDYTSYSGKYARFFPGRFMEAPALFKQKGKYYLIMSGCTGWAPNAGRSAVASSIWGPWKELENPFRGENSEVSFYSQSTYVLPVPGHADRFIYMGDRWTPENAIDGRYIWLPIRFEGEQPVIEWRSEWSY | not soluble |
| MGSDKIHHHHHHMRDQAESLRRMVDGVMEQGRGQGKVIAVVSGKGGVGKSNVSLNFALTLSRQNQKVALIDLDLGMGNLDILMGLSPSYHIIDMIKRELTIWDIAEQGPEGITYIAGGSGLSELVELNERQMERFFQQLESLGAIYDYIILDMGAGATAESLRFILSAHEIFVVTTPEPTSITDAYAMVKYICKEPIENPEILLIVNRAESKREGEQTAANFKRVVSHFLKKDIHSLGYLPQDSHVVKAVKAQAPFVLHAPQAKASMAMGKLVHTYLGHRVDRGAPSYQSFMKKIRKWFR | not soluble |
| MSLRFALTPGEPAGIGPDLCLLLARSAQPHPLIAIASRTLLQERAGQLGLAIDLKDVSPAAWPERPAKAGQLYVWDTPLAAPVRPGQLDRANAAYVLETLTRAGQGCLDGHFAGMITAPVHKGVINEAGIPFSGHTEFLADLTHTAQVVMMLATRGLRVALATTHLPLREVADAISDERLTRVARILHADLRDKFGIAHPRILVCGLNPHAGEGGHLGREEIEVIEPCLERLRGEGLDLIGPLPADTLFTPKHLEHCDAVLAMYHDQGLPVLKYKGFGAAVNVTLGLPIIRTSVDHGTALDLAGSGRIDSGSLQVALETAYQMAASRC | soluble |
| MNPKEQSSYLYEQYDDALGEQLKPITSQYVLQDLNKNSSKQKAQVVQKVDSEYVLRDLRNQADQNQNFSRDAPNRPFLTGTPVNAKEIRSQIESLDNAIVIPQIINGKVFFTTHGDADARTAVEGSVSNPNLNETNVGASKPEGVDLSKMKFTFAQLVALLGPSTCQRLEREFVKKNRLSDAEMSQLRTARESISELNLATGRSTDTLRTAQSVEPNLLSIRTANSLEPNLLSVYSARSPGVFTKKEGMLTAQSPEPNLLSVRTANSLEPNLLSVKPAKELTTISNLKAQSPGLLTAQSAEPNLLSTRTARSSSNTSLIDTESKDVQTCIEIQSPTTGVLTAQSIATPSGSCQSVFTAKEIESIRSSQDVLTAVEILTDMSRSSQDVRTALEISE | not soluble |
| MEELIKKAKEYDIDINDLIIDAISRKDPKEAINLRIELAKKYITETEDYLKKGDAVQASEKAYKTAEEIVKALAEKFNIPEYQQALKEGRWYTYWLASAVNRLAKDLGDWVLNGWNSAYILHVWGFHEAKLSTADISEHLRKVKEMLDNVINIIGKLEHHHHHH | soluble |
| MNRLPRIEQYGLIGDTQTSAHVCDDGSIDWLCLPRFDSPAVFASLLGTQKHGSWQISPAPSTGRSGPEKVTERRYRGDSLVLESVWRTPTGSVRVLDFMPPRDGTPQVIRIVEGLTGDVEMLSAMRPRPGYLEHHHHHH | not soluble |
| MAHHHHHHMSSSVVIVGDSICGGDGDQKLSTSHDEVYLRGFNTFAGNNPSDRALLHEGAGEVVAAISGHIEVTERVISVKGLLPRYQPEIGDVVVGRIVEVSGNKWHVDVNSTQTAIMLLSSVTEPGGILRRRGRGDELGMRQIFDQDDLVAAEVQRISPDGVMSLHTRAADKYGRLSGLGILVSVRPSLVKRAKHQFVELADYSTQLIIGMNGNIWICSVQPSTSDAEETEHATDARQNVARVANCIKALGAAQVQIHPASIEASVAASLDAGLSVFDVSLPKNRDALVARVADMVGMQHRRPTGGGACARTLV | not soluble |
| MKTETPSVKIVAITADEAGQRIDNFLRTQLKGVPKSMIYRILRKGEVRVNKKRIKPEYKLEAGDEVRIPPVRVAEREEEAVSPHLQKVAALADVILYEDDHILVLNKPSGTAVHGGSGLSFGVIEGLRALRPEARFLELVHRLDRDTSGVLLVAKKRSALRSLHEQLREKGMQKDYLALVRGQWQSHVKSVQAPLLKNILQSGERIVRVSQEGKPSETRFKVEERYAFATLVRCSPVTGRTHQIRVHTQYAGHPIAFDDRYGDREFDRQLTEAGTGLNRLFLHAAALKFTHPGTGEVMRIEAPMDEGLKRCLQKLRNAR | soluble |
| MLKRRRFHVHFGWILFHCQDCMRHEEGSEESESSFTEMVAEELKLREAQAQEDEWRADRLLLDAKKAASQYQKEADKCSMGMETCELAREKAEAALDEQRRLSYMWELRARQGGWKEGTVASDVI | soluble |
| MDAENRVIINVGGIRHETYKATLKKIPATRLSRLTEGMLNYDPVLNEYFFDRHPGVFAQIINYYRSGKLHYPTDVCGPLFEEELEFWGLDSNQVEPCCWMTYTAHRDTQETLAVL | soluble |
| KDDKVASATDVQFETPLKIVEYPDPILRAKNKRIDIFDENLKNLVDAMFDVMYKTDGIGLSAPQVGLNVQLMVFNPAGEPGEGKEIVLVNPKIKKYSDKLVPFDEGCLSFPGIYAEVVRPQSVKIDARDITGERFSISLSRLPARIFQHEYDHLEGVLFFDRMTDQVLDSIREELEALEKKYEEKTGLPSPER | soluble |
